# B1: P1 binding site oligo (dsDNA)
# DNA 1: TTGACTTGAC
# DNA 2: GTCAAGTCAA
# B2: StBEL-05 protein synthesized in vitro from pGEM11Z (other)
# chain: MYYQGTSDNTNIQADHQQRHNHGNSNNNNIQTLYLMNPNNYMQGYTTSDTQQQQQLLFLNSSPAASNALCHANIQHAPLQQQHFVGVPLPAVSLHDQINHHGLLQRMWNNQDQSQQVIVPSSTGVSATSCGGITTDLASQLAFQRPIPTPQHRQQQQQQGGLSLSLSPQLQQQISFNNNISSSSPRTNNVTIRGTLDGSSSNMVLGSKYLKAAQELLDEVVNIVGKSIKGDDQKKDNSMNKESMPLASDVNTNSSGGGESSSRQKNEVAVELTTAQRQELQMKKAKLLAMLEEVEQRYRQYHHQMQIIVLSFEQVAGIGSAKSYTQLALHAISKQFRCLKDAIAEQVKATSKSLGEEEGLGGKIEGSRLKFVDHHLRQQRALQQIGMMQPNAWRPQRGLPERAVSVLRAWLFEHFLHPYPKDSDKIMLAKQTGLTRSQVSNWFINARVRLWKPMVEEMYLEEVKNQEQNSTNTSGDNKNKETNISAPNEEKHPIITSSLLQDGITTTQAEISTSTISTSPTAGASLHHAHNFSFLGSFNMDNTTTTVDHIENNAKKQRNDMHKFSPSSILSSVDMEAKARESSNKGFTNPLMAAYAMGDFGRFDPHDQQMTANFHGNNGVSLTLGLPPSENLAMPVSQQNYLSNDLGSRSEMGSHYNRMGYENIDFQSGNKRFPTQLLPDFVTGNLGT
# modifications: 35S-methionine labelled (in vitro translation)
# notes: BEL cDNA cloned into pGEM11Z under the T7 promoter; also called p11Z-5
# Legend:
# [1] = target: T1, StBEL-05/POTH1 heterodimer (Solanum tuberosum); experiment: cell_activity; conditions: tobacco protoplasts, GUS reporter
# T1 chain 1: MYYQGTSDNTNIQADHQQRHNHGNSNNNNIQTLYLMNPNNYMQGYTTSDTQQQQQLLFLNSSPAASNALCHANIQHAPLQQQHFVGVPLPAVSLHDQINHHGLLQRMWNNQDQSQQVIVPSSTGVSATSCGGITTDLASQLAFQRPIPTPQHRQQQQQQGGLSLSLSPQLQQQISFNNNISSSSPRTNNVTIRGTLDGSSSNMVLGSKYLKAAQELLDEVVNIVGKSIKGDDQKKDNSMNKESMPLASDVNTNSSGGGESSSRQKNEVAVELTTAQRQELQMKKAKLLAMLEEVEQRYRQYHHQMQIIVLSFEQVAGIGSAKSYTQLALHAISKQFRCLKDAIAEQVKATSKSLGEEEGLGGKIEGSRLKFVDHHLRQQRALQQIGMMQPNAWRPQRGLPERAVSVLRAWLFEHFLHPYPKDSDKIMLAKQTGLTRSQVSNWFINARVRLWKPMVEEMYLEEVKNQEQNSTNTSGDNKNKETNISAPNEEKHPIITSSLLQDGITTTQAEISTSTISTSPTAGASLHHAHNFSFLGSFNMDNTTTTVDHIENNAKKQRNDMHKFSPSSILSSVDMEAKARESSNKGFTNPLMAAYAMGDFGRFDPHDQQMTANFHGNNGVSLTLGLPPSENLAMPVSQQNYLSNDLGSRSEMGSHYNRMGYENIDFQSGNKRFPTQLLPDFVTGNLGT
# T1 chain 2: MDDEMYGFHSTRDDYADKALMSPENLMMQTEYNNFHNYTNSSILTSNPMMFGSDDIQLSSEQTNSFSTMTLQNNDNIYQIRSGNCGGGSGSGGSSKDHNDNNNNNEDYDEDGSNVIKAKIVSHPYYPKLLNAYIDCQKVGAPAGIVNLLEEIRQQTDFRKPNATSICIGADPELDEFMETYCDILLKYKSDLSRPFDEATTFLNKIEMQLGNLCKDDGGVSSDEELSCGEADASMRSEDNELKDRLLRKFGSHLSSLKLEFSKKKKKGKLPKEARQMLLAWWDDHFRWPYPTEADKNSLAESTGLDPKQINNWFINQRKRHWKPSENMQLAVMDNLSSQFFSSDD
# StBEL-05 [2] = target: T2, StBEL-05 (Solanum tuberosum); experiment: cell_activity; conditions: tobacco protoplasts, GUS reporter
# T2 chain: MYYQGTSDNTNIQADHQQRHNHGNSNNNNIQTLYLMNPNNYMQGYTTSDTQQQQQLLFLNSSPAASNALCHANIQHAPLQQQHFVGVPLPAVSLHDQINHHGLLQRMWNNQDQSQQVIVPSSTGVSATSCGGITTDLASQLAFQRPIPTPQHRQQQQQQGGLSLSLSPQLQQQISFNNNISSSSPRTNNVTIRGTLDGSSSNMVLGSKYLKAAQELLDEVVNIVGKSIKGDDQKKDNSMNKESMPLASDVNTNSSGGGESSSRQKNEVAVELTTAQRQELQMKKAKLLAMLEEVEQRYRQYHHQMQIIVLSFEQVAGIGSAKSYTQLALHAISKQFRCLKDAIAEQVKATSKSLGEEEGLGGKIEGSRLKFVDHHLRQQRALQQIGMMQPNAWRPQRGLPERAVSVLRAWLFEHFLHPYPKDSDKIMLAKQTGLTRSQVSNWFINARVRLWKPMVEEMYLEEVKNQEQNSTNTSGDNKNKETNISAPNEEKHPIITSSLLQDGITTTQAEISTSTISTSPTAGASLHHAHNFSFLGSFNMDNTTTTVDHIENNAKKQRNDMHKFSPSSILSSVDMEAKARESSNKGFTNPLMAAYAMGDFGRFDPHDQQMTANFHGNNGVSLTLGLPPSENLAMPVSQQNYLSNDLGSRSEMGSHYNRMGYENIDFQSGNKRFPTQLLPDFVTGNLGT
# POTH1 [3] = target: T3, POTH1 (Solanum tuberosum); experiment: cell_activity; conditions: tobacco protoplasts, GUS reporter
# T3 chain: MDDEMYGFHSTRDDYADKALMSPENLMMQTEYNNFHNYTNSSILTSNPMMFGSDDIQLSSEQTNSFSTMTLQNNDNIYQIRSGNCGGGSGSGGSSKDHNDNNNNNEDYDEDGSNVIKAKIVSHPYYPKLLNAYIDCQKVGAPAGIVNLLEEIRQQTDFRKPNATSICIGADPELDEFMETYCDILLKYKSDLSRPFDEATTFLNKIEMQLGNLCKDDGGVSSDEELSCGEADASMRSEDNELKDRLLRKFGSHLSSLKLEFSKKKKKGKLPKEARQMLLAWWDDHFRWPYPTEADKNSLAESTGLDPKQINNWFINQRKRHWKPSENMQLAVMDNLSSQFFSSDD
# [4] = target: T1, StBEL-05/POTH1 heterodimer; experiment: EMSA; deduced consensus TGA(C/G)(T/A)TGAC; conditions: tags: GST cleaved by Factor Xa
# StBEL-05 [5] = target: T2, StBEL-05; experiment: EMSA; conditions: tags: GST fusion from pGEX-5X-2, GST cleaved by Factor Xa
# POTH1 [6] = target: T3, POTH1; experiment: EMSA; conditions: tags: GST fusion from pGEX-5X-2, GST cleaved by Factor Xa
# [7] = target: T4, GAD protein alone (GAL4 activation domain) (UniProt P04386 768-881, limits assumed); experiment: immunoprecipitation of in vitro translated 35S-labelled proteins with anti-GAD antibodies
# T4 construct: domain: GAD; Negative control of the immunoprecipitation assay
# T4 sequence (looked up): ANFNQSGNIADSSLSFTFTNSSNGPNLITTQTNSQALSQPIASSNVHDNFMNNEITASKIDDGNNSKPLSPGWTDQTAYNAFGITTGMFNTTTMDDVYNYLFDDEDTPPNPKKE
# Description: In vitro binding experiments were performed as described by Ni et al., "PIF3, a Phytochrome-Interacting Factor Necessary for Normal Photoinduced Signal Transduction, is a Novel Basic Helix-Loop-Helix Protein," *Cell* 95:657-667 (1998), which is hereby incorporated by reference in its entirety. The full-length sequence for POTH1 was cloned into a pET17b/GAD fusion cassette and transcribed under the control of the T7 promoter. The BEL cDNAs were cloned into pGEM11Z vectors and were transcribed under the control of the T7 promoter. ^35S-methionine labeled bait and prey proteins were synthesized using the TnT in vitro transcription-translation kit (Promega) according to the manufacturer's protocols. Each 50 µl TnT reaction contained 2.0 µg of template plasmid DNA and […] (20 µCi) of labeled ^35S-methionine. The POTH1:GAD/BEL complex was immunoprecipitated with anti-GAD antibodies (Santa Cruz Biotechnology, CA). The proteins from the pellet (one-half the fraction) and for the prey (one-fourth of the reaction volume) were resolved on a 10% SDS-PAGE gel and visualized by autoradiography.
# [8] = target: T5, pBHD9, first amino-terminal 114 aa of POTH1 in pBridge (GAL4 DNA-binding domain fusion) (Solanum tuberosum); experiment: in vitro binding protocol (immunoprecipitation of in vitro translated proteins)
# T5 construct: also called pBDH9
molecule,measurement,setting,value
ga20ox1 promoter reporter (980 bp),activity,[1],80 % repression
same,activity,StBEL-05 [2],> 50 % repression
same,activity,POTH1 [3],> 50 % repression
B1,binding result,[4],binds
same,binding result,StBEL-05 [5],binds
same,binding result,POTH1 [6],binds
B2,binding result,[7],no binding
same,binding result,[8],no binding
